Laboratory results published in article PMC3087007 (The Journal of Cell Biology, 2011).

Biological target: T1, GST-occludin 383–522 S408A (human, UniProt Q16625 383-522, S408A)
T1 sequence: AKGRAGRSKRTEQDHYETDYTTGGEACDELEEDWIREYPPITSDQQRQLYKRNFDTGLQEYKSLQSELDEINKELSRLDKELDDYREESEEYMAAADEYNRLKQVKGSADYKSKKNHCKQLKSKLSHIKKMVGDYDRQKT
Assay: pull-down

B1: VSV G epitope-tagged human ZO-1 U5-GuK domain construct (residues 591–754) (domain or fragment)
chain: PKTAGGDRADFWRFRGLRSSKRNLRKSREDLSAQPVQTKFPAYERVVLREAGFLRPVTIFGPIADVAREKLAREEPDIYQIAKSEPRDAGTDQRSSGIIRLHTIKQIIDQDKHALLDVTPNAVDRLNYAQWYPIVVFLNPDSKQGVKTMRMRLCPESRKSARKL
fold binding relative to the S408D mutant: 3.2 fold
